The values below come from the supplement of paper PMC9170038.

This data set has as its system MS2 coat protein. In words: apparent KD of MS2 coat protein; designed switch direction (-1 OFF switch, 1 ON switch): 1; higher = weaker reporter binding. Put shortly:
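Stalled E. coli RNA polymerase transcribed designed RNA switches on Illumina chips, which were then titrated with SNAP-549-labelled MS2 coat protein, doubling from 0.7 or 1.5 nM to 3 µM. Steps lasted from 0.8–1.5 h at the lowest concentration to 10–20 min at the highest. The apparent KD is each design's median over clusters of curve-fitted normalised fluorescence.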

[1] abbreviates: input ligand: microRNA oligo, concentration not stated.
Where [2] appears, read: Eterna round: R95, input ligand: FMN 200 uM.
Setting [3] is: Eterna round: R95, input ligand: microRNA oligo, concentration not stated.
The mark [4] stands for this setting: Eterna round: R95, input ligand: none.

Take “GUAGCAUACCGAGGAUAUUCAUAUUAUACAUGAGGAUCACCCAUGUAAGGUCGAUUACGACCUUGGGAGAAGGCGGAAUGCUAC [Xeonanis - 20 Mod34] (Eterna round: R96, puzzle: Same State NG 2)”: the “apparent KD of MS2 coat protein” value reads like this: (input ligand: FMN 200 uM) 20.3 nM; under setting [1], 71.9 nM; (input ligand: none) 108 nM.
In the case of “GUCAGCGAUUGAGGAUAUCACGUCGAAUAGACGUGAGAAGGCGAUCAUAACAUGAGGAUCACCCAUGUAUUACAUGAAGCUGAC [SSNG1/5-A1] (Eterna round: R96, puzzle: Same State NG 1)”, the “apparent KD of MS2 coat protein” value reads like this: (input ligand: FMN 200 uM) 15.2 nM; under setting [1], 22.4 nM; (input ligand: none) 29.1 nM.
Consider “GUCCGUACCACAGGAUAUCCUAGUCAUGAUCUAGGAGAAGGGUGGCCACAUGAGGAUCACCCAUGUGAAGUGCCAGAGGCACGA [MOD Xexeraed] (Eterna round: R96, puzzle: Same State NG 1)”, for which the “apparent KD of MS2 coat protein” value came to 35.2 nM (input ligand: FMN 200 uM), 46 nM under setting [1] and 53.3 nM (input ligand: none).
Regarding “GUGAAGAAUUAAGGAUAUUGAAUACAUAUGUUUAACAUGAGGAUCACCCAUGUGGGUUGCGGUAUCGAGAAGGUAAAUUACUGG [salish99_SSNG2_r04_032] (Eterna round: R96, puzzle: Same State NG 2)”, the “apparent KD of MS2 coat protein” value under setting [1] was determined as 81.7 nM.
Take “GUGCAAAUCAUAGGAUAUGGGCGGGAAUGCCGUCCAGAAGGAUGAACAUGAGGAUCACCCAUGUCCAGCCGCAAAUACGCGGCC [Sodirien] (Eterna round: R96, puzzle: Same State NG 1)”: the “apparent KD of MS2 coat protein” value (input ligand: FMN 200 uM) amounted to 93.8 nM, the “apparent KD of MS2 coat protein” value under setting [1] is 95.1 nM and the “apparent KD of MS2 coat protein” value (input ligand: none) is 192 nM.
Take “GUGCAACCGUGUGAGGAUAUCGGUGGUAAAACAUGAGGAUCACCCAUGUCCGAAGCUCGGACCUCCGAGAAGGCGCACAGUUGCA [Same State 2 - Mod of Erisin v.1] (puzzle: Same State 2)”: the “apparent KD of MS2 coat protein” value is, setting by setting: under setting [2], 6.82 nM; under setting [3], 5.46 nM; under setting [4], 7.08 nM.
Take “GUGCGGCUGCCACAGGAUAUACGUGGAUCGACAUGAGGAUCACCCAUGUAUAUCCUAAUAAUUGCGUAGAAGGGUGGUCAGCCGG [Anzaenenes] (puzzle: Same State 2)”: the “apparent KD of MS2 coat protein” value runs as follows: under setting [2], 143 nM; under setting [3], 608 nM; under setting [4], 825 nM.
As to “GUGCUCGUGUAAGGAUAUGCAGCCGUUUCGGCUGCAGAAGGUACUAUAAUACAUGAGGAUCACCCAUGUCUCUAUUGUUUGGUG [salish99_SSNG1_r04_906] (Eterna round: R96, puzzle: Same State NG 1)”, the “apparent KD of MS2 coat protein” value under setting [1] was found to be 76.3 nM.
Consider “GUGCUCGUGUGAGGAUAUGCUUCCGUUUCGGCUGCAGAAGGUACUAUUAUACAUGAGGAUCACCCAUGUCUCUUUUCUCCGGUG [salish99_SSNG1_r04_913] (Eterna round: R96, puzzle: Same State NG 1)”, for which the “apparent KD of MS2 coat protein” value is 38.3 nM (input ligand: FMN 200 uM), 27.4 nM under setting [1] and 37.2 nM (input ligand: none).
Take “GUGGCCCAGGCACAGGAUAUGUUUCUCGUAACAUGAGGAUCACCCAUGUGCCUAUGAGAUUGUUUGCAGAAGGGUGCACGCCACG [JL Atiinbe mod 03] (Eterna round: R96, puzzle: Same State 2)”: the “apparent KD of MS2 coat protein” value was found to be 18.3 nM (input ligand: FMN 200 uM), 146 nM under setting [1] and 290 nM (input ligand: none).
Consider “GUGGCCCAGGCACAGGAUAUGUUUCUCGUAACAUGAGGAUCACCCAUGUGCCUAUGAGAUUGUUUGCAGAAGGGUGCACGCCACG [JL Atiinbe mod 03] (puzzle: Same State 2)”, for which the “apparent KD of MS2 coat protein” value reads like this: under setting [2], 21 nM; under setting [3], 348 nM; under setting [4], 541 nM.
For “GUGGCCCAGGCACAGGAUAUGUUUCUCGUAACAUGAGGAUCACCCAUGUGCCUAUGAGAUUUAAUGCAGAAGGGUGCACGCCACU [Mat - Same State 2 - Mod of UCT - D79] (puzzle: Same State 2)”, the “apparent KD of MS2 coat protein” value runs as follows: under setting [2], 24.1 nM; under setting [3], 95.8 nM; under setting [4], 184 nM.
In the case of “GUGGUCAGACAUGAGGAUCACCCAUGUGGAAUAAAUAACAGACAGGAUAUAUAAUAUAGGAUAUAGUAGAAGGGUCGAUUGGUG (Eterna round: R96, puzzle: Same State NG 3)”, the “apparent KD of MS2 coat protein” value under setting [1] was 69.7 nM.
On to “GUGGUCAGACAUGAGGAUCACCCAUGUGGAAUAAAUAACAGACAGGAUAUCGAAUAUAGGAUAUAUGAGAAGGGUCGAUUGGUG (Eterna round: R96, puzzle: Same State NG 3)”, for which the “apparent KD of MS2 coat protein” value by setting is: (input ligand: FMN 200 uM) 63.4 nM; under setting [1], 63 nM; (input ligand: none) 90.7 nM.
On to “GUGGUCAGACAUGAGGAUCACCCAUGUGGAAUAAAUAACAGACAGGAUAUCUAAUAUAGGAUAUAGGAGAAGGGUCGAUUGGUG (Eterna round: R96, puzzle: Same State NG 3)”, for which the “apparent KD of MS2 coat protein” value under setting [1] was found to be 73.5 nM.
Take “GUGGUCAGACAUGAGGAUCACCCAUGUGGAAUAAAUAACGGACAGGAUAUUCAAUAUAGGAUAUAGAAGAAGGGUUGAUUGGUG (Eterna round: R96, puzzle: Same State NG 3)”: the “apparent KD of MS2 coat protein” value by setting is: (input ligand: FMN 200 uM) 143 nM; under setting [1], 84.5 nM; (input ligand: none) 90.9 nM.
Take “GUGGUCAGACAUGAGGAUCACCCAUGUGGAAUAAAUAACGGUGAGGAUAUCGAAUAUAGGAUAUACGAGAAGGCAUGAUUGGUG (Eterna round: R96, puzzle: Same State NG 3)”: the “apparent KD of MS2 coat protein” value is, setting by setting: (input ligand: FMN 200 uM) 165 nM; under setting [1], 93.3 nM; (input ligand: none) 124 nM.
For “GUGGUCAGACAUGAGGAUCACCCAUGUGGAAUAAAUAACGUACAGGAUAUUCAAUAUAGGAUAUAGAAGAAGGGUAGAUUGGUG (Eterna round: R96, puzzle: Same State NG 3)”, the “apparent KD of MS2 coat protein” value (input ligand: FMN 200 uM) was determined as 196 nM, the “apparent KD of MS2 coat protein” value under setting [1] amounted to 136 nM and the “apparent KD of MS2 coat protein” value (input ligand: none) worked out at 195 nM.
For “GUGGUCAGACAUGAGGAUCACCCAUGUGGAAUAAAUAAGGACUAGGAUAUCGAAUAUAGGAUAUACGAGAAGGAGUGGUUGGUG (Eterna round: R96, puzzle: Same State NG 3)”, the “apparent KD of MS2 coat protein” value runs as follows: (input ligand: FMN 200 uM) 81.1 nM; under setting [1], 53.5 nM; (input ligand: none) 67.9 nM.
Regarding “GUGGUCAGACAUGAGGAUCACCCAUGUGGAAUAAAUAAGGAGAAGGAUAUCGAAUAUAGGAUAUACGAGAAGGUCUGGUUGGUG (Eterna round: R96, puzzle: Same State NG 3)”, under setting [1], the “apparent KD of MS2 coat protein” value is 75.2 nM.
Consider “GUGGUCAGACAUGAGGAUCACCCAUGUGGAAUAAAUAAGGAGAAGGAUAUCGAAUAUAGGAUAUACGAGAAGGUUUGGUUGGUG (Eterna round: R96, puzzle: Same State NG 3)”, for which the “apparent KD of MS2 coat protein” value was 120 nM (input ligand: FMN 200 uM), 67.3 nM under setting [1] and 90.6 nM (input ligand: none).
In the case of “GUGGUCAGACAUGAGGAUCACCCAUGUGGAAUAAAUAAGGAGAAGGAUAUUCAAUAUAGGAUAUAGAAGAAGGUCUGGUUGGUG (Eterna round: R96, puzzle: Same State NG 3)”, the “apparent KD of MS2 coat protein” value under setting [1] came to 63.7 nM.
On to “GUGGUCAGACAUGAGGAUCACCCAUGUGGAAUAAAUAAGGAGAAGGAUAUUUAAUAUAGGAUAUAAAAGAAGGUCUGGUUGGUG (Eterna round: R96, puzzle: Same State NG 3)”, for which the “apparent KD of MS2 coat protein” value (input ligand: FMN 200 uM) stood at 99.4 nM, the “apparent KD of MS2 coat protein” value under setting [1] amounted to 55.6 nM and the “apparent KD of MS2 coat protein” value (input ligand: none) was 92.5 nM.
Consider “GUGGUCAGACAUGAGGAUCACCCAUGUGGAAUAAAUAAGGAUCAGGAUAUGGAAUAUAGGAUAUACCAGAAGGGAUGGUUGGUG (Eterna round: R96, puzzle: Same State NG 3)”, for which the “apparent KD of MS2 coat protein” value by setting is: (input ligand: FMN 200 uM) 59.9 nM; under setting [1], 41.7 nM; (input ligand: none) 52.6 nM.
Consider “GUGGUCAGACAUGAGGAUCACCCAUGUGGAAUAAAUAAGGCAUAGGAUAUAAAAUAUAGGAUAUAUUAGAAGGAUGGGUUGGUG (Eterna round: R96, puzzle: Same State NG 3)”, for which the “apparent KD of MS2 coat protein” value is, setting by setting: (input ligand: FMN 200 uM) 145 nM; under setting [1], 83.7 nM; (input ligand: none) 144 nM.
Regarding “GUGGUCAGACAUGAGGAUCACCCAUGUGGAAUAAAUAAGGGAGAGGAUAUAAAAUAUAGGAUAUAUUAGAAGGCUCGGUUGGUG (Eterna round: R96, puzzle: Same State NG 3)”, the “apparent KD of MS2 coat protein” value reads like this: (input ligand: FMN 200 uM) 95.7 nM; under setting [1], 82.7 nM; (input ligand: none) 85.4 nM.
Regarding “GUGGUCAGACAUGAGGAUCACCCAUGUGGAAUAAAUAAGGUACAGGAUAUCUAAUAUAGGAUAUAAGAGAAGGGUAGGUUGGUG (Eterna round: R96, puzzle: Same State NG 3)”, the “apparent KD of MS2 coat protein” value under setting [1] turned out to be 55.9 nM.
“GUGGUCAGACAUGAGGAUCACCCAUGUGGAAUAAAUAAGGUCAAGGAUAUGGAAUAUAGGAUAUACCAGAAGGUGAGGUUGGUG (Eterna round: R96, puzzle: Same State NG 3)”: the “apparent KD of MS2 coat protein” value stood at 245 nM (input ligand: FMN 200 uM), 167 nM under setting [1] and 225 nM (input ligand: none).
As for “GUGGUGAAUUAAGGAUAUCGAGUCUAGAUGUUAAACAUGAGGAUCACCCAUGUGGGUUGCGGUAUCGAGAAGGUAAUUUACGGG [salish99_SSNG2_r04_507] (Eterna round: R96, puzzle: Same State NG 2)”, the “apparent KD of MS2 coat protein” value (input ligand: FMN 200 uM) worked out at 25.4 nM, the “apparent KD of MS2 coat protein” value under setting [1] was found to be 26.1 nM and the “apparent KD of MS2 coat protein” value (input ligand: none) is 47.2 nM.
Turning to “GUGGUGGGUUGAGGAUAUUGGUUGUUGUUGUCCCACAUGAGGAUCACCCAUGUGGGUUGUGGUUUUGAGAAGGUUGGUUGCCGG [salish99_SSNG2_r04_053] (Eterna round: R96, puzzle: Same State NG 2)”, the “apparent KD of MS2 coat protein” value under setting [1] stood at 15 nM.
